Assay results taken from patent US20260015421A1.

Biological target: CD19 on CD19+ cells (Raji, Nalm6) (human) (UniProt P15391)
Assay: cell-based or functional assay

Sequence of UniProt P15391 (P15391 20-556): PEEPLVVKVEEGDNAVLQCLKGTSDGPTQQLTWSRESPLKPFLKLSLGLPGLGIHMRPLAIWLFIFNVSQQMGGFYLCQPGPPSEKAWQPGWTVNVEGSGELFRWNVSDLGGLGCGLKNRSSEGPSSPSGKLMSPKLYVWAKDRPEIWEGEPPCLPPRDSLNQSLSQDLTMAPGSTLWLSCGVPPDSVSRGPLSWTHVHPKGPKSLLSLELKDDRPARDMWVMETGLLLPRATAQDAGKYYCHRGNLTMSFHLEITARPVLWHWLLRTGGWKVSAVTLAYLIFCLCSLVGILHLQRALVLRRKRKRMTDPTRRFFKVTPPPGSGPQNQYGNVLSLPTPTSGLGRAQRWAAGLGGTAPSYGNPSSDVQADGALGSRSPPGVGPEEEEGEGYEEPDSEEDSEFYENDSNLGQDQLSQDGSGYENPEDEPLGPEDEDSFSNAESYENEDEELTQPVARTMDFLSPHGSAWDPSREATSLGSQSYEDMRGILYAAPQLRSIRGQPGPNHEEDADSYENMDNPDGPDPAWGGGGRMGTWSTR

## non-signaling CD19 CAR FMC63-CD8h-CD28TMCo-noZ (IL15 co-expressed), on γδ T cells (from UniProt P01732 138-182; P10747 153-220)
  cytotoxicity against CD19+ Nalm6 ALL cells (7-AAD/CFSE flow cytometry, E:T=0.25-4.0) (fold over non-transduced control): 1.5
